Laboratory results reported in publication PMC7193532 (Acta Crystallographica. Section D, Structural Biology, 2020).
pKd: −log10 of the molar value.

What was measured:
Assay in all cases: SPR
rufomycin I (RUF-I) = settings: read off a plot
ohmyungsamycin A (OMS-A) = settings: read off a plot
ecumicin (ECU) = settings: read off a plot
[1] = target: ClpC1-FL mutant K85A (Mycobacterium tuberculosis) (UniProt P9WPC9)
[2] = target: ClpC1-FL mutant L92S/L96P (Mycobacterium tuberculosis) (UniProt P9WPC9)
[3] = target: ClpC1-FL mutant Q17A (Mycobacterium tuberculosis) (UniProt P9WPC9)
[4] = target: ClpC1-FL mutant V14A (Mycobacterium tuberculosis) (UniProt P9WPC9)
[5] = target: ClpC1-NTD N-terminal mutant FER (residues 2-145) (Mycobacterium tuberculosis) (UniProt P9WPC9)
[6] = target: ClpC1-NTD N-terminal mutant MVFER (Mycobacterium tuberculosis) (UniProt P9WPC9)
[7] = target: ClpC1-NTD MAFER (Mycobacterium tuberculosis) (UniProt P9WPC9)

ClpC1-NTD (SPR construct, His6-SUMO tag cleaved) (from UniProt P9WPC9) MVAFER (ValAla inserted before Phe2)
pKd (rufomycin I (RUF-I); parent: est. 68 nM): 6.05

full-length ClpC1 (ClpC1-FL) (from UniProt P9WPC9) Q17A
pKd (ohmyungsamycin A (OMS-A); parent: est. 350 nM): 5.89
pKd (rufomycin I (RUF-I); parent: est. 87 nM): 5.85

ClpC1-NTD (SPR construct, His6-SUMO tag cleaved) (from UniProt P9WPC9) MAF (MAFER: Ala inserted before Phe2)
pKd (ecumicin (ECU); parent: est. 51 nM): 5.42
pKd (ohmyungsamycin A (OMS-A); parent: est. 400 nM): 5.02

ClpC1-NTD (SPR construct, His6-SUMO tag cleaved) (from UniProt P9WPC9) AAFER (Met1Ala mutation and Ala insertion)
pKd (ecumicin (ECU); parent: est. 51 nM): 5.48
pKd (ohmyungsamycin A (OMS-A); parent: est. 400 nM): 5.04
pKd (rufomycin I (RUF-I); parent: est. 68 nM): 5.92

full-length ClpC1 (ClpC1-FL) (from UniProt P9WPC9) K85A
pKd (ecumicin (ECU); parent: est. 68 nM): 6.24
pKd (ohmyungsamycin A (OMS-A); parent: est. 350 nM): 5.80
pKd (rufomycin I (RUF-I); parent: est. 87 nM): 6.38

ClpC1-NTD (SPR construct, His6-SUMO tag cleaved) (from UniProt P9WPC9) MVFER (Val inserted before Phe2)
pKd (ecumicin (ECU); parent: est. 51 nM): 5.39

full-length ClpC1 (ClpC1-FL) (from UniProt P9WPC9) V14A
pKd (ohmyungsamycin A (OMS-A); parent: est. 350 nM): 5.80
pKd (rufomycin I (RUF-I); parent: est. 87 nM): 6.20

rufomycin I (RUF-I) (peptide)
fold reduction in binding affinity against wild type [1]: 5 fold
fold reduction in binding affinity against wild type [2]: 3 fold
fold reduction in binding against wild type [3]: 17 fold
fold reduction in binding affinity against wild type [4]: 8 fold
fold reduction in binding against wild type [5]: 5 fold
fold reduction in binding affinity against wild type [6]: 6 fold

ecumicin (peptide)
pKd [7]: 5.46

ClpC1-NTD (SPR construct, His6-SUMO tag cleaved) (from UniProt P9WPC9) M1del (FER)
pKd (ohmyungsamycin A (OMS-A); parent: est. 400 nM): 5.31
pKd (rufomycin I (RUF-I); parent: est. 68 nM): 6.44

full-length ClpC1 (ClpC1-FL) (from UniProt P9WPC9) L92S; L96P
pKd (rufomycin I (RUF-I); parent: est. 87 nM): 6.59
